This is an account of results in article PMC6138665, “HUWE1 E3 ligase promotes PINK1/PARKIN-independent mitophagy by regulating AMBRA1 activation via IKKα” (Nature Communications, 2018).

For orientation: Kd means the concentration at which binding is half-saturated.

The target of test [1] is T1, GABARAP protein (recombinant) (UniProt O95166 1-117).
T1 construct: GABARAP, one of the six mATG8 proteins; CSPs were mapped on PDB 1GNU; source: unlabelled or 15N-labelled
The test is described as follows: ITC; peptides at 0.35 mM titrated into 0.015 mM LC3 and GABARAP proteins in 21 steps; MicroCal VP-ITC; 25 °C and 35 °C (the LC3B titrations of Fig. 4a at 35 °C); 50 mM Na2HPO4, 100 mM NaCl, pH 7.0; one-site binding model. The following applies: both partners purified. (Isothermal titration calorimetry measures the heat released or taken up as one component is titrated into another.)

The target in test [2] is LC3B protein (recombinant) (UniProt Q9GZQ8 1-120). The test is described as above. The following applies: both partners purified.

Non-standard residues stand in square brackets, D forms with d. No end group written: not given here. pS = N[C@@H](COP(=O)(O)O)C(=O)O

T1 sequence (O95166 whole entry): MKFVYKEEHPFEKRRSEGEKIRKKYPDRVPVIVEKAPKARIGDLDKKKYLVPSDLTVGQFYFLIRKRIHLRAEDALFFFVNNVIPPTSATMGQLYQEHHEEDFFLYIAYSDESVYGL

B1: AMBRA1-LIR peptide, unphosphorylated (P0) (peptide)
peptide: EALNSGVEYYWDQLNET
notes: limits counted from S1014 as the fifth letter; also called unmodified AMBRA1-LIR; source: synthetic peptide, bought: GenScript
Consider B1, for which the Kd was about 40 µM in test [1] and over 100 µM in test [2].

B2: AMBRA1-LIR peptide, S1014 phosphorylated (P1) (peptide)
peptide: EALN[pS]GVEYYWDQLNET
notes: limits counted from S1014 as the fifth letter; also called S1014-phosphorylated AMBRA1-LIR peptide; source: synthetic peptide, bought: GenScript
On to B2, for which the equilibrium dissociation constant (Kd) in test [1] worked out at 21 µM; in test [2] it was 53 µM.
